According to the RNAGym collection of RNA variant scans (doi:10.1093/molbev/msab373):

B1: Azoarcus group I ribozyme (parent)
chain: GUGCCUUGCGCCGGGAAACCACGCAAGGGAUGGUGUCAAAUUCGGCGAAACCUAAGCGCCCGCCCGGGCGUAUGGCAACGCCGAGCCAAGCUUCGGCGCCUGCGCCGAUGAAGGUGUAGAGACUAGACGGCACCCACCUAAGGCAAACGCUAUGGUGAAGGCAUAGUCCAGGGAGUGGCGAAAGUCACACAAACCGG

Variants of: B1
Assay: reverse-splicing fitness (ratio to wild type); higher = more active; in vitro selection; Mg2+ level not given
How it was run: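 An in vitro group I ribozyme library with randomized positions was T7-transcribed and gel-purified. In triplicate, 10 pmol RNA in EPPS pH 7.5 was reacted with 50 pmoles of a 30-nt RNA substrate for 1 h at 37 °C across several added MgCl2 levels (1–48 mM), then stopped with EDTA. Products were reverse transcribed from a substrate-complementary primer, PCR-amplified and sequenced (HiSeq 4000). Fitness is a variant's read proportion after selection over that before, normalised to wild type.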

Row | Variant | reverse-splicing fitness
1 | A145U C169G | 0.3
2 | A145U C169U | 0.407
3 | A145U C169A | 0.173
4 | A145U C169U U176A | 0.109
5 | A145U C169U U176G | 0.013
6 | A145U C169U U176C | 0.149
7 | A145U C169A U176G | 0.00543
8 | A145U C169A U176A | 0.0255
9 | A145U C169A U176C | 0.0523
10 | A145U C150U C169A U176C | 0.04
11 | A145U C150U C169A U176G | 0.00551
12 | A145U C150U C169A U176A | 0.0236
13 | C150A C169U U176C | 0.0421
14 | C150A C169U U176G | 0.00737
15 | C150A C169U U176A | 0.0369
16 | A145G C169A U176G | 0.00541
17 | A145G C169A U176C | 0.0662
18 | A145G C169A U176A | 0.0412
19 | A145G C150U C169U | 0.382
20 | A145G C150U C169G | 0.239
21 | A145G C169U U176C | 0.174
22 | A145G C169U U176A | 0.123
23 | A145G C169U U176G | 0.0104
24 | A145U C150A U176G | 0.177
25 | A145U C150A U176C | 0.363
26 | A145U C150A U176A | 0.4

Row | Variant | reverse-splicing fitness
27 | C150U U176C | 0.869
28 | C150U U176G | 0.306
29 | C150U U176A | 0.814
30 | C150A C169U | 0.061
31 | C150A C169G | 0.0379
32 | C150A C169A | 0.0251
33 | A145U C150G U176C | 0.351
34 | A145U C150G U176A | 0.326
35 | A145U C150G U176G | 0.108
36 | A145G C150U C169G U176A | 0.0615
37 | A145G C150U C169G U176C | 0.11
38 | A145G C150U C169G U176G | 0.00685
39 | C169G U176G | 0.00806
40 | C169G U176A | 0.0721
41 | C169G U176C | 0.137
42 | C150G C169G U176C | 0.0077
43 | C150G C169G U176A | 0.00867
44 | C150G C169G U176G | 0.0051
45 | A145U C169G U176A | 0.0717
46 | A145U C169G U176C | 0.133
47 | A145U C169G U176G | 0.00761
48 | C169A | 0.18
49 | C169G | 0.323
50 | C169U | 0.407
51 | C150A C169G U176G | 0.00565
52 | C150A C169G U176C | 0.0327

Row | Variant | reverse-splicing fitness
53 | C150A C169G U176A | 0.026
54 | U176A | 0.87
55 | U176C | 0.815
56 | U176G | 0.348
57 | C169U U176G | 0.0131
58 | C169U U176C | 0.182
59 | C169U U176A | 0.114
60 | C150G C169G | 0.0309
61 | C150G C169A | 0.02
62 | C150G C169U | 0.0492
63 | A145U C150A C169G U176A | 0.0176
64 | A145U C150A C169G U176G | 0.00588
65 | A145U C150A C169G U176C | 0.0285
66 | A145U C150G C169A U176G | 0.00602
67 | A145U C150G C169A U176C | 0.0151
68 | A145U C150G C169A U176A | 0.0122
69 | A145U C150A C169A U176G | 0.00528
70 | A145U C150A C169A U176C | 0.0139
71 | A145U C150A C169A U176A | 0.014
72 | C150U C169G U176A | 0.0516
73 | C150U C169G U176C | 0.0925
74 | C150U C169G U176G | 0.0074
75 | A145G C150U C169U U176G | 0.00803
76 | A145G C150U C169U U176A | 0.113
77 | A145G C150U C169U U176C | 0.149
78 | A145G C169U | 0.369

Row | Variant | reverse-splicing fitness
79 | A145G C169A | 0.172
80 | A145G C169G | 0.302
81 | A145U C150U C169U | 0.312
82 | A145U C150U C169G | 0.215
83 | A145U C150U C169A | 0.106
84 | A145U C150G C169U | 0.0635
85 | A145U C150G C169G | 0.0415
86 | A145U C150G C169A | 0.0224
87 | A145U U176G | 0.462
88 | A145U U176C | 0.911
89 | A145U U176A | 0.937
90 | A145U C150G C169G U176A | 0.0118
91 | A145U C150G C169G U176C | 0.00868
92 | A145U C150G C169G U176G | 0.00509
93 | C150G C169U U176G | 0.00596
94 | C150G C169U U176C | 0.0326
95 | C150G C169U U176A | 0.0131
96 | A145U | 0.946
97 | C150A C169A U176G | 0.00665
98 | C150A C169A U176C | 0.0227
99 | C150A C169A U176A | 0.0214
100 | A145G U176G | 0.325
101 | A145G U176A | 0.863
102 | A145G U176C | 0.91
103 | A145U C150A C169G | 0.0369
104 | A145U C150A C169A | 0.0212

Row | Variant | reverse-splicing fitness
105 | A145U C150A C169U | 0.0521
106 | A145G C150U C169A U176C | 0.0527
107 | A145G C150U C169A U176G | 0.00628
108 | A145U C150A C169U U176A | 0.031
109 | A145U C150A C169U U176C | 0.0345
110 | A145U C150A C169U U176G | 0.00699
111 | A145G C169G U176A | 0.0818
112 | A145G C169G U176C | 0.14
113 | A145G C169G U176G | 0.00802
114 | A145U C150U C169G U176G | 0.008
115 | A145U C150U C169G U176A | 0.0606
116 | A145U C150U C169G U176C | 0.0907
117 | C150G C169A U176C | 0.0144
118 | C150G C169A U176A | 0.0121
119 | C150G C169A U176G | 0.00618
120 | A145U C150G | 0.512
121 | A145U C150U | 0.943
122 | A145U C150A | 0.465
123 | C150G U176C | 0.286
124 | C150G U176G | 0.0576
125 | C150G U176A | 0.219
126 | C150U C169G | 0.172
127 | C150U C169A | 0.0973
128 | C150U C169U | 0.247
129 | C150U C169U U176A | 0.0877
130 | C150U C169U U176G | 0.0109

Row | Variant | reverse-splicing fitness
131 | C150U C169U U176C | 0.128
132 | A145G C150U U176G | 0.308
133 | A145G C150U U176C | 0.821
134 | A145G C150U U176A | 0.844
135 | C150U | 0.878
136 | C150A | 0.484
137 | C150G | 0.42
138 | C169A U176C | 0.0638
139 | C169A U176A | 0.0336
140 | C169A U176G | 0.0054
141 | A145U C150U C169U U176G | 0.0111
142 | A145U C150U C169U U176C | 0.141
143 | A145U C150U C169U U176A | 0.0998
144 | A145U C150U U176G | 0.342
145 | A145U C150U U176A | 0.908
146 | A145U C150U U176C | 0.816
147 | C150A U176G | 0.185
148 | C150A U176A | 0.406
149 | C150A U176C | 0.398
150 | C150U C169A U176C | 0.0431
151 | C150U C169A U176G | 0.00623
152 | C150U C169A U176A | 0.0259
153 | A145U C150G C169U U176A | 0.0182
154 | A145U C150G C169U U176C | 0.0406
155 | A145U C150G C169U U176G | 0.00591
